Patent publication US20250026860A1 (NATIONAL UNIVERSITY CORPORATION OKAYAMA UNIVERSITY, published 2025)

Tests used:
Test in all cases: ELISA, albumin preparation immobilized on 96-well microplate
[1] = target: rat serum albumin protein adduct with 4-HNE (rat) (UniProt P02770)
[2] = target: bovine serum albumin protein adduct with 4-HNE (bovine) (UniProt P02769)
[3] = target: human serum albumin protein adduct with 4-HNE (human) (UniProt P02768)
[4] = target: rabbit serum albumin protein adduct with 4-HNE (rabbit) (UniProt P49065)
[5] = target: T1, rabbit serum albumin, unmodified (rabbit, UniProt P49065 25-608)
T1 construct: also called Rabbit-SA
Description: (§1) Each mixed solution of substrate albumin and a protein-modifying substance was immobilized on a 96-well microplate, and was investigated for specificity to the anti-4-HNE antibody (#13-1-1) of the present invention by an ELISA method.

[6] = target: T2, rabbit serum albumin modified with methylglyoxal (rabbit, UniProt P49065 25-608, non-enzymatically modified by incubation with methylglyoxal (50 mM, 7 days); sites not stated)
T2 construct: also called Methylglyoxal Rabbit-SA
Description: as §1

[7] = target: T3, human serum albumin modified with malondialdehyde (human, UniProt P02768 25-609, non-enzymatically modified by incubation with malondialdehyde (MDA, 50 mM, 7 days); sites not stated)
T3 construct: also called MDA HSA
Description: as §1

[8] = target: T4, bovine serum albumin modified with D-glucose (bovine, UniProt P02769 25-607, non-enzymatically modified by incubation with D-glucose (250 mM, 3 weeks); sites not stated)
T4 construct: also called D-glucose BSA
Description: as §1

[9] = target: T5, rabbit serum albumin modified with malondialdehyde (rabbit, UniProt P49065 25-608, non-enzymatically modified by incubation with malondialdehyde (MDA, 50 mM, 7 days); sites not stated)
T5 construct: also called MDA Rabbit-SA
Description: as §1

[10] = target: T6, rabbit serum albumin modified with glyceraldehyde (rabbit, UniProt P49065 25-608, non-enzymatically modified by incubation with glyceraldehyde (50 mM, 7 days); sites not stated)
T6 construct: also called Glyceraldehyde Rabbit-SA
Description: as §1

[11] = target: T7, bovine serum albumin modified with malondialdehyde (bovine, UniProt P02769 25-607, non-enzymatically modified by incubation with malondialdehyde (MDA, 50 mM, 7 days); sites not stated)
T7 construct: also called MDA BSA
Description: as §1

[12] = target: T8, human serum albumin modified with methylglyoxal (human, UniProt P02768 25-609, non-enzymatically modified by incubation with methylglyoxal (50 mM, 7 days); sites not stated)
T8 construct: also called Methylglyoxal HSA
Description: as §1

[13] = target: T9, rat serum albumin, unmodified (rat, UniProt P02770 25-608)
T9 construct: also called Rat-SA
T9 sequence (P02770 25-608 limits assumed): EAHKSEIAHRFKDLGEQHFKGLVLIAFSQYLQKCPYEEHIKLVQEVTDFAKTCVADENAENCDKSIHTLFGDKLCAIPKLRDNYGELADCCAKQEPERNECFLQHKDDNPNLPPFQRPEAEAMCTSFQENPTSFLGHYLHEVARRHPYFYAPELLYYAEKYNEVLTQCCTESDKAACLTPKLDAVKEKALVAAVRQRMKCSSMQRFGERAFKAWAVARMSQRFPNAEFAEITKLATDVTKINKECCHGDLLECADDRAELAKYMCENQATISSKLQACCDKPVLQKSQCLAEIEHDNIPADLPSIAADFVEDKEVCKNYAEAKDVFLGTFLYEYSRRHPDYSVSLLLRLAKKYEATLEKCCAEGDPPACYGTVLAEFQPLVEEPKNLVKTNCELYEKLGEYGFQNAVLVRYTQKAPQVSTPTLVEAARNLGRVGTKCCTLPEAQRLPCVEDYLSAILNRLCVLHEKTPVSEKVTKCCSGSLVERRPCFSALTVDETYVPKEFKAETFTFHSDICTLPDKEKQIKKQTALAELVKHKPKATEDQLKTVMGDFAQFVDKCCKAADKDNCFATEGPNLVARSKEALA
Description: as §1

[14] = target: T10, human serum albumin modified with D-glucose (human, UniProt P02768 25-609, non-enzymatically modified by incubation with D-glucose (250 mM, 3 weeks); sites not stated)
T10 construct: also called D-glucose HSA
Description: as §1

[15] = target: T11, bovine serum albumin modified with glycolaldehyde (bovine, UniProt P02769 25-607, non-enzymatically modified by incubation with glycolaldehyde (50 mM, 7 days); sites not stated)
T11 construct: also called Glycolaldehyde BSA
Description: as §1

[16] = target: T12, rat serum albumin modified with malondialdehyde (rat, UniProt P02770 25-608, non-enzymatically modified by incubation with malondialdehyde (MDA, 50 mM, 7 days); sites not stated)
T12 construct: also called MDA Rat-SA
T12 sequence (P02770 25-608 limits assumed): as above
Description: as §1

[17] = target: T13, human serum albumin modified with glyceraldehyde (human, UniProt P02768 25-609, non-enzymatically modified by incubation with glyceraldehyde (50 mM, 7 days); sites not stated)
T13 construct: also called Glyceraldehyde HSA
Description: as §1

[18] = target: T14, rat serum albumin modified with glyceraldehyde (rat, UniProt P02770 25-608, non-enzymatically modified by incubation with glyceraldehyde (50 mM, 7 days); sites not stated)
T14 construct: also called Glyceraldehyde Rat-SA
T14 sequence (P02770 25-608 limits assumed): as above
Description: as §1

[19] = target: T15, rabbit serum albumin modified with crotonaldehyde (rabbit, UniProt P49065 25-608, non-enzymatically modified by incubation with crotonaldehyde (CRA, 50 mM, 7 days); sites not stated)
T15 construct: also called CRA Rabbit-SA
Description: as §1

[20] = target: T16, bovine serum albumin modified with crotonaldehyde (bovine, UniProt P02769 25-607, non-enzymatically modified by incubation with crotonaldehyde (CRA, 50 mM, 7 days); sites not stated)
T16 construct: also called CRA BSA
Description: as §1

[21] = target: T17, bovine serum albumin modified with glyceraldehyde (bovine, UniProt P02769 25-607, non-enzymatically modified by incubation with glyceraldehyde (50 mM, 7 days); sites not stated)
T17 construct: also called Glyceraldehyde BSA
Description: as §1

[22] = target: T18, rat serum albumin modified with glycolaldehyde (rat, UniProt P02770 25-608, non-enzymatically modified by incubation with glycolaldehyde (50 mM, 7 days); sites not stated)
T18 construct: also called Glycolaldehyde Rat-SA
Description: as §1

[23] = target: T19, human serum albumin modified with crotonaldehyde (human, UniProt P02768 25-609, non-enzymatically modified by incubation with crotonaldehyde (CRA, 50 mM, 7 days); sites not stated)
T19 construct: also called CRA HSA
Description: as §1

[24] = target: T20, rabbit serum albumin modified with glyoxal (rabbit, UniProt P49065 25-608, non-enzymatically modified by incubation with glyoxal (50 mM, 7 days); sites not stated)
T20 construct: also called Glyoxal Rabbit-SA
Description: as §1

[25] = target: T21, human serum albumin, unmodified (human, UniProt P02768 25-609)
T21 construct: also called HSA
Description: as §1

[26] = target: T22, bovine serum albumin modified with methylglyoxal (bovine, UniProt P02769 25-607, non-enzymatically modified by incubation with methylglyoxal (50 mM, 7 days); sites not stated)
T22 construct: also called Methylglyoxal BSA
Description: as §1

[27] = target: T23, rat serum albumin modified with crotonaldehyde (rat, UniProt P02770 25-608, non-enzymatically modified by incubation with crotonaldehyde (CRA, 50 mM, 7 days); sites not stated)
T23 construct: also called CRA Rat-SA
T23 sequence (P02770 25-608 limits assumed): as above
Description: as §1

[28] = target: T24, rabbit serum albumin modified with D-glucose (rabbit, UniProt P49065 25-608, non-enzymatically modified by incubation with D-glucose (250 mM, 3 weeks); sites not stated)
T24 construct: also called D-glucose Rabbit-SA
Description: as §1

[29] = target: T25, bovine serum albumin, unmodified (bovine, UniProt P02769 25-607)
T25 construct: also called BSA
Description: as §1

[30] = target: T26, rat serum albumin modified with glyoxal (rat, UniProt P02770 25-608, non-enzymatically modified by incubation with glyoxal (50 mM, 7 days); sites not stated)
T26 construct: also called Glyoxal Rat-SA
T26 sequence (P02770 25-608 limits assumed): as above
Description: as §1

[31] = target: T27, human serum albumin modified with glycolaldehyde (human, UniProt P02768 25-609, non-enzymatically modified by incubation with glycolaldehyde (50 mM, 7 days); sites not stated)
T27 construct: also called Glycolaldehyde HSA
Description: as §1

[32] = target: T28, bovine serum albumin modified with glyoxal (bovine, UniProt P02769 25-607, non-enzymatically modified by incubation with glyoxal (50 mM, 7 days); sites not stated)
T28 construct: also called Glyoxal BSA
Description: as §1

[33] = target: T29, human serum albumin modified with glyoxal (human, UniProt P02768 25-609, non-enzymatically modified by incubation with glyoxal (50 mM, 7 days); sites not stated)
T29 construct: also called Glyoxal HSA
Description: as §1

[34] = target: T30, rat serum albumin modified with D-glucose (rat, UniProt P02770 25-608, non-enzymatically modified by incubation with D-glucose (250 mM, 3 weeks); sites not stated)
T30 construct: also called D-glucose Rat-SA
T30 sequence (P02770 25-608 limits assumed): as above
Description: as §1

[35] = target: T31, rat serum albumin modified with methylglyoxal (rat, UniProt P02770 25-608, non-enzymatically modified by incubation with methylglyoxal (50 mM, 7 days); sites not stated)
T31 construct: also called Methylglyoxal Rat-SA
T31 sequence (P02770 25-608 limits assumed): as above
Description: as §1

[36] = target: T32, rabbit serum albumin modified with glycolaldehyde (rabbit, UniProt P49065 25-608, non-enzymatically modified by incubation with glycolaldehyde (50 mM, 7 days); sites not stated)
T32 construct: also called Glycolaldehyde Rabbit-SA
Description: as §1

Sequence of rat serum albumin protein adduct with 4-HNE (rat) (P02770 25-608 limits assumed, form in doubt): as the sequence (P02770 25-608 limits assumed) above

B1: anti-4-HNE monoclonal antibody (#13-1-1) (antibody, V domains shown)
VH: EVKLLASGGGLVQPGGSMRLSCAASGFTFTDFYMYWIRQPAGKAPEWLGFIRNKANGYTTEYNPSVKGRFTISRDNTQNMLYLQMNTLRAEDTATYYCALGYYGYNYNWFAYWGQGTLVTVSS
VL: ETVMTQSPTSMSTSIGERVTLNCRASQSVGINVDWYQQTPGQSPKMLIYGASNRHTGVPDRFTGSGFGRDFTLTISNMEAEDLGVYYCLQYASIPYTFGAGTKLELKR
notes: Rat hybridoma monoclonal antibody; also called anti-4-HNE antibody (#13-1-1); monoclonal antibody produced from Rat hybridoma #13-1-1
ELISA reading (name and unit not given) [1]: 1.37
ELISA reading (name and unit not given) [2]: 1.11
ELISA reading (name and unit not given) [3]: 0.956
ELISA reading (name and unit not given) [4]: 0.663
ELISA reading (name and unit not given) [5]: 0.114
ELISA reading (name and unit not given) [6]: 0.072
ELISA reading (name and unit not given) [7]: 0.065
ELISA reading (name and unit not given) [8]: 0.081
ELISA reading (name and unit not given) [9]: 0.07
ELISA reading (name and unit not given) [10]: 0.069
ELISA reading (name and unit not given) [11]: 0.074
ELISA reading (name and unit not given) [12]: 0.069
ELISA reading (name and unit not given) [13]: 0.088
ELISA reading (name and unit not given) [14]: 0.068
ELISA reading (name and unit not given) [15]: 0.071
ELISA reading (name and unit not given) [16]: 0.08
ELISA reading (name and unit not given) [17]: 0.068
ELISA reading (name and unit not given) [18]: 0.069
ELISA reading (name and unit not given) [19]: 0.074
ELISA reading (name and unit not given) [20]: 0.156
ELISA reading (name and unit not given) [21]: 0.07
ELISA reading (name and unit not given) [22]: 0.07
ELISA reading (name and unit not given) [23]: 0.077
ELISA reading (name and unit not given) [24]: 0.073
ELISA reading (name and unit not given) [25]: 0.118
ELISA reading (name and unit not given) [26]: 0.073
ELISA reading (name and unit not given) [27]: 0.141
ELISA reading (name and unit not given) [28]: 0.069
ELISA reading (name and unit not given) [29]: 0.15
ELISA reading (name and unit not given) [30]: 0.073
ELISA reading (name and unit not given) [31]: 0.071
ELISA reading (name and unit not given) [32]: 0.066
ELISA reading (name and unit not given) [33]: 0.065
ELISA reading (name and unit not given) [34]: 0.076
ELISA reading (name and unit not given) [35]: 0.074
ELISA reading (name and unit not given) [36]: 0.067
